Data taken from patent EP4759829A1 (The University of Tokyo, dated 2025).
Where “and” joins values, the source holds several entries; their conditions need not be identical. Identical values can stand only once. Blank lines part the entries; values can stand above or below the binder they belong to.

Assays:
[1] = target: T1, human HVEM on cells (HEK293T cells expressing HVEM; Mesenchymal subtype GBM cells) (human, UniProt Q92956 39-283); assay: cell-based or functional assay
T1 sequence (looked up): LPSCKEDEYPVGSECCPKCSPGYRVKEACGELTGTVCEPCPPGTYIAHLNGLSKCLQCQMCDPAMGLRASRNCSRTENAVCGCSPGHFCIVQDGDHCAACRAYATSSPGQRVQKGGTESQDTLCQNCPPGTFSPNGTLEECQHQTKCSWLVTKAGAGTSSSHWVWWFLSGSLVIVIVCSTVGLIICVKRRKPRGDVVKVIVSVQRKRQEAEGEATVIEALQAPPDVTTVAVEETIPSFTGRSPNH

[2] = target: T1, human HVEM on cells (HEK293T cells …); assay: cell ELISA on fixed HEK293T cells expressing HVEM, anti-His-HRP detection
[3] = target: T2, human HVEM extracellular domain recombinant protein (Sino Biological Japan Inc. 10334-H08H) (human, UniProt Q92956 39-202); assay: SPR (BIAcore T200), biotinylated VHH-3-Avitag on SA chip, HVEM extracellular domain as analyte
T2 construct: extracellular domain; Bought protein
T2 sequence (looked up): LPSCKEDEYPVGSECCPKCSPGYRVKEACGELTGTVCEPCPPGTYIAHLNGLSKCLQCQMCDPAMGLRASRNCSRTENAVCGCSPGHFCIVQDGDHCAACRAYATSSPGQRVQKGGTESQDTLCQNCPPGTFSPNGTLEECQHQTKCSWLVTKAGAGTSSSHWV

[4] = target: T2, human HVEM extracellular domain …; assay: SPR (BIAcore T200), antibody captured by anti-human IgG on CM5 chip, HVEM extracellular domain as analyte

B1: humanized anti-human HVEM antibody (HVR80) conjugated with monomethyl auristatin E (MMAE) (other)
chain: EVQLVESGGGLVQPGGSLRLSCAASGSIGSIHRWDWYRQAPGKQREWVATLNSEGGPTYADSVEGRFTISRDNSKNTLYLQMNSLRPEDTAVYRCAARTVPFEYWGQGTLVTVSSGPPCPPCPAPEFLGGPSVFLFPPKPKDTLMISRTPEVTCVVVDVSQEDPEVQFNWYVDGVEVHNAKTKPREEQFNSTYRVVSVLTVLHQDWLNGKEYKCKVSNKGLPSSIEKTISKAKGQPREPQVYTLPPSQEEMTKNQVSLTCLVKGFYPSDIAVEWESNGQPENNYKTTPPVLDSDGSFFLYSRLTVDKSRWQEGNVFSCSVMHEALHNHYTQKSLSLSLGK
modifications: conjugated with monomethyl auristatin E (MMAE) using Glyclick ADC MMAE (Genovis AB); site not stated
IC50 of cell viability of HEK293T-HVEM cells, 3 days [1]: 70 ng/ml and 0.9 nM

B2: humanized anti-human HVEM antibody (HVR80) conjugated with PNU (other)
chain: EVQLVESGGGLVQPGGSLRLSCAASGSIGSIHRWDWYRQAPGKQREWVATLNSEGGPTYADSVEGRFTISRDNSKNTLYLQMNSLRPEDTAVYRCAARTVPFEYWGQGTLVTVSSGPPCPPCPAPEFLGGPSVFLFPPKPKDTLMISRTPEVTCVVVDVSQEDPEVQFNWYVDGVEVHNAKTKPREEQFNSTYRVVSVLTVLHQDWLNGKEYKCKVSNKGLPSSIEKTISKAKGQPREPQVYTLPPSQEEMTKNQVSLTCLVKGFYPSDIAVEWESNGQPENNYKTTPPVLDSDGSFFLYSRLTVDKSRWQEGNVFSCSVMHEALHNHYTQKSLSLSLGK
modifications: conjugated with PNU using Glyclick ADC PNU (Genovis AB); site not stated
IC50 of cell viability of HEK293T-HVEM cells, 3 days [1]: 30 ng/ml and 0.4 nM

Now from value to binder:

EC50 [2]: 1.94 nM
B3: alpaca anti-human HVEM antibody (VHH-3), 6×His-tagged (VHH)
VHH: QVQLVESGGGSVQPGGSLRLSCAASGSIGSIHRWDWYRLCPGKQREWVATLNSEGGPTYADSVEGRFTISRDNAKNMVYLQMNSLKPEDTAVYRCSARTVPFEYWGRGTQVTVSS
notes: also called 6×His-tagged VHH-3 antibody; not shown: 6×His tag

Kd [3]: 19 nM
B4: alpaca anti-human HVEM antibody (VHH-3) tagged C-terminally with biotinylated Avitag (VHH)
VHH: QVQLVESGGGSVQPGGSLRLSCAASGSIGSIHRWDWYRLCPGKQREWVATLNSEGGPTYADSVEGRFTISRDNAKNMVYLQMNSLKPEDTAVYRCSARTVPFEYWGRGTQVTVSS
modifications: biotinylated Avitag at the C-terminus
notes: not shown: C-terminal Avitag (biotinylated)

Kd [4]: 59 nM
B5: humanized anti-human HVEM antibody (HVR80) (Fc fusion)
chain: EVQLVESGGGLVQPGGSLRLSCAASGSIGSIHRWDWYRQAPGKQREWVATLNSEGGPTYADSVEGRFTISRDNSKNTLYLQMNSLRPEDTAVYRCAARTVPFEYWGQGTLVTVSSGPPCPPCPAPEFLGGPSVFLFPPKPKDTLMISRTPEVTCVVVDVSQEDPEVQFNWYVDGVEVHNAKTKPREEQFNSTYRVVSVLTVLHQDWLNGKEYKCKVSNKGLPSSIEKTISKAKGQPREPQVYTLPPSQEEMTKNQVSLTCLVKGFYPSDIAVEWESNGQPENNYKTTPPVLDSDGSFFLYSRLTVDKSRWQEGNVFSCSVMHEALHNHYTQKSLSLSLGK
notes: Printed molecular weight about 77,000
